Assay results: paper PMC3074124

Molecular target: T1, His6-MBNL1 (human, UniProt Q9NR56-5 1-382)
T1 sequence: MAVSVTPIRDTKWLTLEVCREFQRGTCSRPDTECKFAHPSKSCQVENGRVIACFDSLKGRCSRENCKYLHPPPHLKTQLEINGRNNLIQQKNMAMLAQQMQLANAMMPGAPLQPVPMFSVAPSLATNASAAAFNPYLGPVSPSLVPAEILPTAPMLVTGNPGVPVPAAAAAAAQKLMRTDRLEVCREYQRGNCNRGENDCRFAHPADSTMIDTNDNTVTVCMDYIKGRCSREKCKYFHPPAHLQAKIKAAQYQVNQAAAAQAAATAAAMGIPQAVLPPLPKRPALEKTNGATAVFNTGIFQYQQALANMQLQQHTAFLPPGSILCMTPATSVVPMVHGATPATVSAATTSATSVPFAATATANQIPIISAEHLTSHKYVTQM
Assay: EMSA

B1: DOWN (ssRNA)
RNA: GUAUGACUCACCUGUGCGACCCCUGGUGCCUGCUCCGCGCAGGGCCGGCGGCGUGCCAGGCAGAUGCCUCGGAGAACCCAGGGGUUUCUGUGGCUUUUUGCAUGCGGCGGGCAGCUGUGCUGGAGAGCAGAUGCUUCACCAAUUCAGAAAUCCAAUGCCUUCACUCUGAAAUGAAAUCUGGGCAU
binding result: binds
